# According to the RNAGym collection of RNA variant scans (doi:10.7554/elife.80360):
# B1: CPEB3 Ribozyme (parent)
# chain: GGGGGCCACAGCAGAAGCGUUCACGUCGCGGCCCCUGUCAGAUUCUGGUGAAUCUGCGAAUUCUGCUGU
# Variants of: B1
# Experiment: self-cleavage, relative activity (ratio to wild type); higher = more cleavage; co-transcriptional
row,Variant,self-cleavage
1,GGGGGCCACAGCAAAAGCGUUCACGUCGCGGCCCCUGUCAGAUUCUGGUGAAUCUGCGAAUUCUGCCGU [G14A U67C],0.583
2,GGGGGCCACAGCAAAAGCGUUCACGUCGCGGCCCCUGUCAGAUUCUGGUGAAUCUGCGAAUUCUGCGGU [G14A U67G],0.682
3,GGGGGCCACAGCACCAGCGUUCACGUCGCGGCCCCUGUCAGAUUCUGGUGAAUCUGCGAAUUCUGCUGU [G14C A15C],0.166
4,GGGGGCCACAGCACACGCGUUCACGUCGCGGCCCCUGUCAGAUUCUGGUGAAUCUGCGAAUUCUGCUGU [G14C A16C],0.143
5,GGGGGCCACAGCACAGGCGUUCACGUCGCGGCCCCUGUCAGAUUCUGGUGAAUCUGCGAAUUCUGCUGU [G14C A16G],0.353
6,GGGGGCCACAGCACAUGCGUUCACGUCGCGGCCCCUGUCAGAUUCUGGUGAAUCUGCGAAUUCUGCUGU [G14C A16U],0.28
7,GGGGGCCACAGCACAAGCGUUCCCGUCGCGGCCCCUGUCAGAUUCUGGUGAAUCUGCGAAUUCUGCUGU [G14C A23C],0.555
8,GGGGGCCACAGCACAAGCGUUCUCGUCGCGGCCCCUGUCAGAUUCUGGUGAAUCUGCGAAUUCUGCUGU [G14C A23U],0.761
9,GGGGGCCACAGCACAAGCGUUCACGUCGCGGCCCCUGUCCGAUUCUGGUGAAUCUGCGAAUUCUGCUGU [G14C A40C],0.183
10,GGGGGCCACAGCACAAGCGUUCACGUCGCGGCCCCUGUCGGAUUCUGGUGAAUCUGCGAAUUCUGCUGU [G14C A40G],0.324
11,GGGGGCCACAGCACAAGCGUUCACGUCGCGGCCCCUGUCAGCUUCUGGUGAAUCUGCGAAUUCUGCUGU [G14C A42C],0.331
12,GGGGGCCACAGCACAAGCGUUCACGUCGCGGCCCCUGUCAGGUUCUGGUGAAUCUGCGAAUUCUGCUGU [G14C A42G],0.266
13,GGGGGCCACAGCACAAGCGUUCACGUCGCGGCCCCUGUCAGUUUCUGGUGAAUCUGCGAAUUCUGCUGU [G14C A42U],0.228
14,GGGGGCCACAGCACAAGCGUUCACGUCGCGGCCCCUGUCAGAUUCUGGUGCAUCUGCGAAUUCUGCUGU [G14C A51C],0.337
15,GGGGGCCACAGCACAAGCGUUCACGUCGCGGCCCCUGUCAGAUUCUGGUGGAUCUGCGAAUUCUGCUGU [G14C A51G],0.666
16,GGGGGCCACAGCACAAGCGUUCACGUCGCGGCCCCUGUCAGAUUCUGGUGAGUCUGCGAAUUCUGCUGU [G14C A52G],0.57
17,GGGGGCCACAGCACAAGCGUUCACGUCGCGGCCCCUGUCAGAUUCUGGUGAAUCUGCGCAUUCUGCUGU [G14C A59C],0.262
18,GGGGGCCACAGCACAAGCGUUCACGUCGCGGCCCCUGUCAGAUUCUGGUGAAUCUGCGUAUUCUGCUGU [G14C A59U],0.263
19,GGGGGCCACAGCACAAGCGUUCACGUCGCGGCCCCUGUCAGAUUCUGGUGAAUCUGCGAGUUCUGCUGU [G14C A60G],0.265
20,GGGGGCCACAGCACAAGGGUUCACGUCGCGGCCCCUGUCAGAUUCUGGUGAAUCUGCGAAUUCUGCUGU [G14C C18G],0.101
21,GGGGGCCACAGCACAAGCGUUAACGUCGCGGCCCCUGUCAGAUUCUGGUGAAUCUGCGAAUUCUGCUGU [G14C C22A],0.142
22,GGGGGCCACAGCACAAGCGUUGACGUCGCGGCCCCUGUCAGAUUCUGGUGAAUCUGCGAAUUCUGCUGU [G14C C22G],0.122
23,GGGGGCCACAGCACAAGCGUUUACGUCGCGGCCCCUGUCAGAUUCUGGUGAAUCUGCGAAUUCUGCUGU [G14C C22U],0.0705
24,GGGGGCCACAGCACAAGCGUUCAUGUCGCGGCCCCUGUCAGAUUCUGGUGAAUCUGCGAAUUCUGCUGU [G14C C24U],0.175
25,GGGGGCCACAGCACAAGCGUUCACGUAGCGGCCCCUGUCAGAUUCUGGUGAAUCUGCGAAUUCUGCUGU [G14C C27A],0.146
26,GGGGGCCACAGCACAAGCGUUCACGUGGCGGCCCCUGUCAGAUUCUGGUGAAUCUGCGAAUUCUGCUGU [G14C C27G],0.159

row,Variant,self-cleavage
1,GGGGGCCACAGCACAAGCGUUCACGUUGCGGCCCCUGUCAGAUUCUGGUGAAUCUGCGAAUUCUGCUGU [G14C C27U],0.14
2,GGGGGCCACAGCACAAGCGUUCACGUCGAGGCCCCUGUCAGAUUCUGGUGAAUCUGCGAAUUCUGCUGU [G14C C29A],0.0734
3,GGGGGCCACAGCACAAGCGUUCACGUCGGGGCCCCUGUCAGAUUCUGGUGAAUCUGCGAAUUCUGCUGU [G14C C29G],0.172
4,GGGGGCCACAGCACAAGCGUUCACGUCGUGGCCCCUGUCAGAUUCUGGUGAAUCUGCGAAUUCUGCUGU [G14C C29U],0.163
5,GGGGGCCACAGCACAAGCGUUCACGUCGCGGACCCUGUCAGAUUCUGGUGAAUCUGCGAAUUCUGCUGU [G14C C32A],0.25
6,GGGGGCCACAGCACAAGCGUUCACGUCGCGGGCCCUGUCAGAUUCUGGUGAAUCUGCGAAUUCUGCUGU [G14C C32G],0.193
7,GGGGGCCACAGCACAAGCGUUCACGUCGCGGCACCUGUCAGAUUCUGGUGAAUCUGCGAAUUCUGCUGU [G14C C33A],0.413
8,GGGGGCCACAGCACAAGCGUUCACGUCGCGGCGCCUGUCAGAUUCUGGUGAAUCUGCGAAUUCUGCUGU [G14C C33G],0.293
9,GGGGGCCACAGCACAAGCGUUCACGUCGCGGCUCCUGUCAGAUUCUGGUGAAUCUGCGAAUUCUGCUGU [G14C C33U],0.636
10,GGGGGCCACAGCACAAGCGUUCACGUCGCGGCCACUGUCAGAUUCUGGUGAAUCUGCGAAUUCUGCUGU [G14C C34A],0.406
11,GGGGGCCACAGCACAAGCGUUCACGUCGCGGCCGCUGUCAGAUUCUGGUGAAUCUGCGAAUUCUGCUGU [G14C C34G],0.236
12,GGGGGCCACAGCACAAGCGUUCACGUCGCGGCCCGUGUCAGAUUCUGGUGAAUCUGCGAAUUCUGCUGU [G14C C35G],0.191
13,GGGGGCCACAGCACAAGCGUUCACGUCGCGGCCCUUGUCAGAUUCUGGUGAAUCUGCGAAUUCUGCUGU [G14C C35U],0.464
14,GGGGGCCACAGCACAAGCGUUCACGUCGCGGCCCCUGUAAGAUUCUGGUGAAUCUGCGAAUUCUGCUGU [G14C C39A],0.225
15,GGGGGCCACAGCACAAGCGUUCACGUCGCGGCCCCUGUGAGAUUCUGGUGAAUCUGCGAAUUCUGCUGU [G14C C39G],0.248
16,GGGGGCCACAGCACAAGCGUUCACGUCGCGGCCCCUGUUAGAUUCUGGUGAAUCUGCGAAUUCUGCUGU [G14C C39U],0.286
17,GGGGGCCACAGCACAAGCGUUCACGUCGCGGCCCCUGUCAGAUUAUGGUGAAUCUGCGAAUUCUGCUGU [G14C C45A],0.406
18,GGGGGCCACAGCACAAGCGUUCACGUCGCGGCCCCUGUCAGAUUGUGGUGAAUCUGCGAAUUCUGCUGU [G14C C45G],0.468
19,GGGGGCCACAGCACAAGCGUUCACGUCGCGGCCCCUGUCAGAUUUUGGUGAAUCUGCGAAUUCUGCUGU [G14C C45U],0.562
20,GGGGGCCACAGCACAAGCGUUCACGUCGCGGCCCCUGUCAGAUUCUGGUGAAUGUGCGAAUUCUGCUGU [G14C C54G],0.251
21,GGGGGCCACAGCACAAGCGUUCACGUCGCGGCCCCUGUCAGAUUCUGGUGAAUUUGCGAAUUCUGCUGU [G14C C54U],0.544
22,GGGGGCCACAGCACAAGCGUUCACGUCGCGGCCCCUGUCAGAUUCUGGUGAAUCUGAGAAUUCUGCUGU [G14C C57A],0.325
23,GGGGGCCACAGCACAAGCGUUCACGUCGCGGCCCCUGUCAGAUUCUGGUGAAUCUGUGAAUUCUGCUGU [G14C C57U],0.28
24,GGGGGCCACAGCACAAGCGUUCACGUCGCGGCCCCUGUCAGAUUCUGGUGAAUCUGCGAAUUAUGCUGU [G14C C63A],0.928
25,GGGGGCCACAGCACAAGCGUUCACGUCGCGGCCCCUGUCAGAUUCUGGUGAAUCUGCGAAUUUUGCUGU [G14C C63U],0.862
26,GGGGGCCACAGCACAAGCGUUCACGUCGCGGCCCCUGUCAGAUUCUGGUGAAUCUGCGAAUUCUGAUGU [G14C C66A],0.244

row,Variant,self-cleavage
1,GGGGGCCACAGCACAAGCGUUCACGUCGCGGCCCCUGUCAGAUUCUGGUGAAUCUGCGAAUUCUGUUGU [G14C C66U],0.358
2,GGGGGCCACAGCACAAACGUUCACGUCGCGGCCCCUGUCAGAUUCUGGUGAAUCUGCGAAUUCUGCUGU [G14C G17A],0.164
3,GGGGGCCACAGCACAACCGUUCACGUCGCGGCCCCUGUCAGAUUCUGGUGAAUCUGCGAAUUCUGCUGU [G14C G17C],0.119
4,GGGGGCCACAGCACAAGCAUUCACGUCGCGGCCCCUGUCAGAUUCUGGUGAAUCUGCGAAUUCUGCUGU [G14C G19A],0.136
5,GGGGGCCACAGCACAAGCGUUCACAUCGCGGCCCCUGUCAGAUUCUGGUGAAUCUGCGAAUUCUGCUGU [G14C G25A],0.142
6,GGGGGCCACAGCACAAGCGUUCACCUCGCGGCCCCUGUCAGAUUCUGGUGAAUCUGCGAAUUCUGCUGU [G14C G25C],0.167
7,GGGGGCCACAGCACAAGCGUUCACUUCGCGGCCCCUGUCAGAUUCUGGUGAAUCUGCGAAUUCUGCUGU [G14C G25U],0.0786
8,GGGGGCCACAGCACAAGCGUUCACGUCACGGCCCCUGUCAGAUUCUGGUGAAUCUGCGAAUUCUGCUGU [G14C G28A],0.154
9,GGGGGCCACAGCACAAGCGUUCACGUCCCGGCCCCUGUCAGAUUCUGGUGAAUCUGCGAAUUCUGCUGU [G14C G28C],0.154
10,GGGGGCCACAGCACAAGCGUUCACGUCUCGGCCCCUGUCAGAUUCUGGUGAAUCUGCGAAUUCUGCUGU [G14C G28U],0.148
11,GGGGGCCACAGCACAAGCGUUCACGUCGCAGCCCCUGUCAGAUUCUGGUGAAUCUGCGAAUUCUGCUGU [G14C G30A],0.255
12,GGGGGCCACAGCACAAGCGUUCACGUCGCGACCCCUGUCAGAUUCUGGUGAAUCUGCGAAUUCUGCUGU [G14C G31A],0.228
13,GGGGGCCACAGCACAAGCGUUCACGUCGCGCCCCCUGUCAGAUUCUGGUGAAUCUGCGAAUUCUGCUGU [G14C G31C],0.167
14,GGGGGCCACAGCACAAGCGUUCACGUCGCGUCCCCUGUCAGAUUCUGGUGAAUCUGCGAAUUCUGCUGU [G14C G31U],0.179
15,GGGGGCCACAGCACAAGCGUUCACGUCGCGGCCCCUAUCAGAUUCUGGUGAAUCUGCGAAUUCUGCUGU [G14C G37A],0.151
16,GGGGGCCACAGCACAAGCGUUCACGUCGCGGCCCCUCUCAGAUUCUGGUGAAUCUGCGAAUUCUGCUGU [G14C G37C],0.127
17,GGGGGCCACAGCACAAGCGUUCACGUCGCGGCCCCUUUCAGAUUCUGGUGAAUCUGCGAAUUCUGCUGU [G14C G37U],0.183
18,GGGGGCCACAGCACAAGCGUUCACGUCGCGGCCCCUGUCAAAUUCUGGUGAAUCUGCGAAUUCUGCUGU [G14C G41A],0.16
19,GGGGGCCACAGCACAAGCGUUCACGUCGCGGCCCCUGUCACAUUCUGGUGAAUCUGCGAAUUCUGCUGU [G14C G41C],0.192
20,GGGGGCCACAGCACAAGCGUUCACGUCGCGGCCCCUGUCAUAUUCUGGUGAAUCUGCGAAUUCUGCUGU [G14C G41U],0.231
21,GGGGGCCACAGCACAAGCGUUCACGUCGCGGCCCCUGUCAGAUUCUAGUGAAUCUGCGAAUUCUGCUGU [G14C G47A],0.729
22,GGGGGCCACAGCACAAGCGUUCACGUCGCGGCCCCUGUCAGAUUCUUGUGAAUCUGCGAAUUCUGCUGU [G14C G47U],0.725
23,GGGGGCCACAGCACAAGCGUUCACGUCGCGGCCCCUGUCAGAUUCUGAUGAAUCUGCGAAUUCUGCUGU [G14C G48A],0.703
24,GGGGGCCACAGCACAAGCGUUCACGUCGCGGCCCCUGUCAGAUUCUGCUGAAUCUGCGAAUUCUGCUGU [G14C G48C],0.677
25,GGGGGCCACAGCACAAGCGUUCACGUCGCGGCCCCUGUCAGAUUCUGGUAAAUCUGCGAAUUCUGCUGU [G14C G50A],0.613
26,GGGGGCCACAGCACAAGCGUUCACGUCGCGGCCCCUGUCAGAUUCUGGUCAAUCUGCGAAUUCUGCUGU [G14C G50C],0.405
